We go through three molecules from PMC12136795, “RNA modifications and Prp24 coordinate Lsm2–8 binding dynamics during S. cerevisiae U6 snRNP assembly”.

Series [1] deals with T1, Lsm2-8 heteroheptamer WT (Saccharomyces cerevisiae, UniProt P38203;P57743;P40070;P40089;Q06406;P53905;P47093 …).
T1 sequence 1: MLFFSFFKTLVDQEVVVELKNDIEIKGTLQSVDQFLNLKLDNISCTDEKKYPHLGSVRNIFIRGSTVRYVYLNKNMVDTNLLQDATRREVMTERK
T1 sequence 2: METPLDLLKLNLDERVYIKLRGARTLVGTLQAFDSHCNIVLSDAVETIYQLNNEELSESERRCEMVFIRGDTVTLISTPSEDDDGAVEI
T1 sequence 3: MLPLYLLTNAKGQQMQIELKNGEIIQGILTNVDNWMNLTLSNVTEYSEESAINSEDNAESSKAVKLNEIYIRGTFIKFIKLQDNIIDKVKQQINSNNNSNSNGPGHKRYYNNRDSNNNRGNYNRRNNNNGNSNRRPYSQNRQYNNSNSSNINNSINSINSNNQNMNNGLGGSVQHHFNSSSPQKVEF
T1 sequence 4: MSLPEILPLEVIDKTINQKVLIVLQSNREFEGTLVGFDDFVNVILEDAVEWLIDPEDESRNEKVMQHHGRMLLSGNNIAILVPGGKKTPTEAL
T1 sequence 5: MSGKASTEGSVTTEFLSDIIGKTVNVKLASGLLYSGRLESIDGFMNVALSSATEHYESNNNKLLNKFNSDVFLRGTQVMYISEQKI
T1 sequence 6: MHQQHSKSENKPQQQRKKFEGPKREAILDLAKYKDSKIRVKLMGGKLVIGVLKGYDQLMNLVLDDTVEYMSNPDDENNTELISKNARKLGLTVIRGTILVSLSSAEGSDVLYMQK
T1 sequence 7: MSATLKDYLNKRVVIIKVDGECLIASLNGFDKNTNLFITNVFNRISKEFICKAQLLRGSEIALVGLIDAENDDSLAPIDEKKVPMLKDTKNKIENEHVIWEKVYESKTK
Description: fluorescence polarization; Hill 1.26; FP: 2x RNA stock 2 nM mixed 1:1 with protein, 100 mM NaCl, 20 mM Bis-Tris pH 7.0, 10 mM HCl, 1 mM TCEP, 5% glycerol, yeast tRNA, BSA. EMSA: 100 mM KCl, 20% sucrose, 20 mM Hepes pH 7, 1 mM EDTA, 1 mM TCEP, 0.01% Triton X-100 (RNA buffer), yeast tRNA, heparin, BSA, 30 min room temperature, 6% native PAGE at 4 C. CoSMoS buffer not in material. Conditions: protein: recombinant; tags: His-tag removed with TEV; copies: 1;1;1;1;1;1;1; label: fluorophore. (Polarisation of emitted light reports the rotation of a fluorescent probe.)

For series [2], the target named is T2, Lsm2-8fSNAP (unlabeled) (Saccharomyces cerevisiae, UniProt P38203;P57743;P40070;P40089;Q06406;P53905;P47093 …).
T2 sequence 1: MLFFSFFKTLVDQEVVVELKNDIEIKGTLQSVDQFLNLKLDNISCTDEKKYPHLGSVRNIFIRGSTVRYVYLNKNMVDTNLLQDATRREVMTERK
T2 sequence 2: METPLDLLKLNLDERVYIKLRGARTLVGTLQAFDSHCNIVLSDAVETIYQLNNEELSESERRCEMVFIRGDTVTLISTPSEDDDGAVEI
T2 sequence 3: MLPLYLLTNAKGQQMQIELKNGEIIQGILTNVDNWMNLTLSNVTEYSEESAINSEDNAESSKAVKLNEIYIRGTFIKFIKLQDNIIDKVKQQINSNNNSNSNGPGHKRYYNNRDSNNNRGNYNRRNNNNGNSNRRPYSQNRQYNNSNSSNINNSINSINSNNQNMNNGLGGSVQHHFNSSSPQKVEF
T2 sequence 4: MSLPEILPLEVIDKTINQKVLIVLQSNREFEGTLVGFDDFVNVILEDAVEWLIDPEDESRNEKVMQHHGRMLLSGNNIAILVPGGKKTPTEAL
T2 sequence 5: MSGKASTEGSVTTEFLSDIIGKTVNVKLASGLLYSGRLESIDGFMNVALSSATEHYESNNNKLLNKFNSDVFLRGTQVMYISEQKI
T2 sequence 6: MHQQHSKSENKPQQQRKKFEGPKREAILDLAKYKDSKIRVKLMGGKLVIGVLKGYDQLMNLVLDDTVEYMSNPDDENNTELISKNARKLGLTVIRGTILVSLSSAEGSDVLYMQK
T2 sequence 7: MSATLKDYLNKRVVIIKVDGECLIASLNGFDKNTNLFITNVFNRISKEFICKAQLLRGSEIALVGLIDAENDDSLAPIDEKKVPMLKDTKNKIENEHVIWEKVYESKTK
The series is described as follows: fluorescence polarization; Hill 1.35; FP: 2x RNA stock 2 nM mixed 1:1 with protein, 100 mM NaCl, 20 mM Bis-Tris pH 7.0, 10 mM HCl, 1 mM TCEP, 5% glycerol, yeast tRNA, BSA. EMSA: 100 mM KCl, 20% sucrose, 20 mM Hepes pH 7, 1 mM EDTA, 1 mM TCEP, 0.01% Triton X-100 (RNA buffer), yeast tRNA, heparin, BSA, 30 min room temperature, 6% native PAGE at 4 C. CoSMoS buffer not in material. Conditions: protein: recombinant; tags: fast SNAP tag at C terminus of Lsm8 via flexible linker; His-tag removed with TEV; copies: 1;1;1;1;1;1;1; label: fluorophore.

For series [3], the target named is T2, Lsm2-8fSNAP (unlabeled). Description: fluorescence polarization; Hill 1.12; FP: 2x RNA stock 2 nM mixed 1:1 with protein, 100 mM NaCl, 20 mM Bis-Tris pH 7.0, 10 mM HCl, 1 mM TCEP, 5% glycerol, yeast tRNA, BSA. EMSA: 100 mM KCl, 20% sucrose, 20 mM Hepes pH 7, 1 mM EDTA, 1 mM TCEP, 0.01% Triton X-100 (RNA buffer), yeast tRNA, heparin, BSA, 30 min room temperature, 6% native PAGE at 4 C. CoSMoS buffer not in material. The note with it: protein: recombinant; tags: fast SNAP tag at C terminus of Lsm8 via flexible linker; His-tag removed with TEV; copies: 1;1;1;1;1;1;1; label: fluorophore.

For series [4], the target named is T1, Lsm2-8 heteroheptamer WT. Description: fluorescence polarization; Hill 1.18; FP: 2x RNA stock 2 nM mixed 1:1 with protein, 100 mM NaCl, 20 mM Bis-Tris pH 7.0, 10 mM HCl, 1 mM TCEP, 5% glycerol, yeast tRNA, BSA. EMSA: 100 mM KCl, 20% sucrose, 20 mM Hepes pH 7, 1 mM EDTA, 1 mM TCEP, 0.01% Triton X-100 (RNA buffer), yeast tRNA, heparin, BSA, 30 min room temperature, 6% native PAGE at 4 C. CoSMoS buffer not in material. Conditions: protein: recombinant; tags: His-tag removed with TEV; copies: 1;1;1;1;1;1;1; label: fluorophore.

Series [5] concerns the target T2, Lsm2-8fSNAP (unlabeled). The series is described as follows: fluorescence polarization; Hill 0.88; FP: 2x RNA stock 2 nM mixed 1:1 with protein, 100 mM NaCl, 20 mM Bis-Tris pH 7.0, 10 mM HCl, 1 mM TCEP, 5% glycerol, yeast tRNA, BSA. EMSA: 100 mM KCl, 20% sucrose, 20 mM Hepes pH 7, 1 mM EDTA, 1 mM TCEP, 0.01% Triton X-100 (RNA buffer), yeast tRNA, heparin, BSA, 30 min room temperature, 6% native PAGE at 4 C. CoSMoS buffer not in material. Conditions: protein: recombinant; tags: fast SNAP tag at C terminus of Lsm8 via flexible linker; His-tag removed with TEV; copies: 1;1;1;1;1;1;1; label: fluorophore.

For series [6], the target named is T1, Lsm2-8 heteroheptamer WT. The series is described as follows: fluorescence polarization; Hill 1.11; FP: 2x RNA stock 2 nM mixed 1:1 with protein, 100 mM NaCl, 20 mM Bis-Tris pH 7.0, 10 mM HCl, 1 mM TCEP, 5% glycerol, yeast tRNA, BSA. EMSA: 100 mM KCl, 20% sucrose, 20 mM Hepes pH 7, 1 mM EDTA, 1 mM TCEP, 0.01% Triton X-100 (RNA buffer), yeast tRNA, heparin, BSA, 30 min room temperature, 6% native PAGE at 4 C. CoSMoS buffer not in material. Conditions: protein: recombinant; tags: His-tag removed with TEV; copies: 1;1;1;1;1;1;1; label: fluorophore.

Consider AGAGAUUUAUUUCGUUUU (ssRNA, 3' cis-diol (2',3'-OH)) [U6 95-112-OH], for which the results for the Kd in series [1] and in series [2] were 84.6 ± 16.8 nM and 114 ± 16.8 nM, respectively.
With AGAGAUUUAUUUCGUUUUU (ssRNA, 3' cis-diol (2',3'-OH)) [U6 95-113-OH], the figures for the Kd in series [3] and in series [4] were 6.7 ± 1.1 nM and 6.75 ± 1.15 nM, respectively.
With AGAGAUUUAUUUCGUUUU (ssRNA, 3' phosphate) [U6 95-112-P], the Kd in series [5] amounted to 12.8 ± 3.87 nM; in series [6], 10.3 ± 4.1 nM.

One may read the Kd as the free concentration of one partner at which half of the binding sites on the other are occupied at equilibrium, for simple one-to-one binding.
